Reference: the nanobody polyreactivity screen of Harvey et al. (2022)

test: yeast display, Sf9 membrane polyspecificity reagent, FACS + sequencing; frameworks hold sequencing errors
Method in brief: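 Galactose-induced (36–48 hours) yeast carrying a synthetic nanobody display library were exposed to 10% biotinylated, detergent-solubilized Sf9 membrane reagent at 4 °C for 1 hour. FACS followed streptavidin microbead enrichment, using low and high (top ~1%) gates for expression (anti-HA) and reagent binding (streptavidin). Colony PCR, MiSeq 2 × 250 sequencing and CDR-length filtering followed. Labels for polyreactivity reflect the gate of origin.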

Sequence	polyreactivity (PSR sort gate)
QVQLAESGGGLVQAGGSLRLSCAASGRTFGRYVMGWYRQAPGKERELVAAITSSSSSTYADSVKGRFTISRDNAKNTVYLQMNSLKPEDTAVYYCNKRYTSRHRPEYDYWGQGTQVTVSS	high polyreactivity
QVQLAESGGGLVQAGGSLRLSCAASGSIFWGNAMGWYRQATGKERELVAAIDWSGGSTYYADSVKGRFTISRDNGKNTVYLQMNSLKAEDTAVYYCAASGRYDYDYWGQGTQVTVSS	low polyreactivity
QVQLAESGGGLVQAGGSLRLSCAASGSNFSPNAMGWYRQAPGKERELVAAITAGARTNYADSVKGRFTISRDNSKNTFYLQMNSLKPEDTAVYYCNAESYYDYNYWGQGTQVTVSS	low polyreactivity
QVQLDESGRGLVQAGGSLRLSCAASGSTFGRYAMGRYREAPGKERELVAAISRGGGSTYYADSVKGRFTISRDNAKNTVYLQMNSLKPEDTAVYYCATDQNYPYSGGGDYWGQGTQVTVSS	low polyreactivity
QVQLEDSGGGLVQAGGSLPLSCAASGRTFGLNVMGWSRQATGTERELLASIRNIGGSTYYADSVKGRFTISCDNAKNTVYLQMNSLKPEDTAVFYCAAVTRSWVHYRYYYWGQGTQVTVSS	high polyreactivity
QVQLEDSGGGLVQAGGSLRLSCAASGATFDGYTMAWYRQAPGKERELVAAISWRGTSTYYADSVKGRFTISRDNAKNTVYLQMNSLKPDDTAVYYCAADAYSGYDYWGQGTQVNVSS	low polyreactivity
QVQLEDSGGGLVQAGGSLRLSCAASGRIFGKYAMGWYRQAPGKERELVAAISYSGGRTYYADSVKGRFTISRDNAKNTVYLQMNSLTPEDTAVYYCAAVYHGINSYDYDYSGQGTQVTVSS	high polyreactivity
QVQLEDSGGGLVQAGGSLRLSCAASGRIFGTNAMGWYRQAPGKERELVATITRGGGNTYYADSVKGRFTISRDNAKNTVYLQMNSLKPEDTAVYYCAAKFNRFAWYSHYDYWGQGTQVTVSS	low polyreactivity
QVQLEDSGGGLVQAGGSLRLSCAASVSTFSRNAMGWYRQAPGKEREFVAAISWSGSSTYYADSVKGRFTISRDNAKNTVFLQMNSLKPEDTAVYYCAARETWYPYYWMGYWGQGTQVTVSS	high polyreactivity
QVQLEDSGGGLVQAGGSLRLSSAASGIIFYPNAMGWYRQSPGKERELVAAITSDGSTYYADSVKGRFTISRDNAKNTVYLQMNSLKPEDTAVYYCDDWDDYGYDYWGQGTQVTVSS	low polyreactivity
QVQLEDSGGGLVQAGGSLRLTSPASGSIFWYYDMGWYRQAPGKERELVAAITVIGSSTNYADSVKGRFTNSRDNAKITVYLQMNRLKPEDTAVYYCAAVRPPTPSRRREDYWGQGTQVTVSS	low polyreactivity
QVQLEDSRGGLVQAGGSLRLSCAASGLILASYAMGWNRQAQGKERQLVSAISRSGGSTYYEDSVKVRFTISRDNAKITVYLQMKSLKPEHTAVYYFAAKYPPKTPVNTYGNSFYYWGQGTQVTVSS	low polyreactivity
QVQLEEAGGGLVQAGGSLRLRCAASGRTFWYYAMGWYRQAPGKERELVAAITSGGSTNYADSVKGRFTISRDNEKNTVYLQMNSLKPEDTAVYYCAKLFRKRRSWDWYDYWGQGTQVTVSS	high polyreactivity
QVQLEESAGGLVQAGGSLRLSCAASGFTFRRYARGWYRQAPGKERELVAAISSRGGSTYYADSVKGRFTISRDNAKNTGYLQMKSLKPEDTAVYYCNRDAWGGTDLLGYNYWGHGTQVTVSS	high polyreactivity
QVQLEESAGGLVQAGGSLRLSCAASGRIFKAYAMGWYRQAPGKERELVASISRDGSTSYADSVKGRFTISRDNEKNTVYLQMNSLKPEDTAVFYCAGPSYRTRYYFWGQGTQVNVSS	high polyreactivity
QVQLEESCGGLVQAGGSHRLICAASGPTIRYNGIGWYRQAPRKEREFLAAISWSGGSTYYADSVKGRFTISRDYAKNTVYLQMNSLKPEDTAVYYCNVDFHWQRFHHISADYDYWGLGTQVTVSS	high polyreactivity

Sequence	polyreactivity (PSR sort gate)
QVQLEESGAGLVQAGGRHRLSCPASGFIFDWNAMGWYRQPPGKERELVAAISDDGDSTDYADSVKGRFTISRDNAKNTVYLQMNSLKPEDTAVYSCAANTERVYPCFSFGYWGQGTQVTVSS	low polyreactivity
QVQLEESGAGLVQAGGSLRLSCAASVSIFRQYAMGWYRQAPGKERELFAAINYSGGKTYYADSVKGRFTISRDNAKNTVYLQLNSLKPEDTAVYYCAADSVRHYWWAYYYWGQVTQVTVSS	low polyreactivity
QVQLEESGGALVQAGGSLRLSCAASGRTFSGNAMGWYRQAPGKERELVAAISSGGSTNYADSVKGRFTISRDNAKNTVYLQMNSLKPEDTAVYYCAADEWRFPSYAYYYWGQGTQVTVSS	low polyreactivity
QVQLEESGGCLVQAGGSLRLSCAASGYIFTPYAKGWYRPAPGKEREFVAAITRSGGSTYYADSVKGRFTISRDYAKNTVYLQMNSLKPEDTAVYYCARYANYDKRYDYWGQGTQVTVSS	high polyreactivity
QVQLEESGGGFVQAGGSLRLSCAASGSIFYYYVMGLYRQAAGKERELVAALTNSDRTYYADSVKGRFTISRDNAKNTVYLQMTSLKPEDTAVYYCAADYYWSPYYVYQFDYWGQGTQVTVSS	low polyreactivity
QVQLEESGGGIVQAGGSLRLRCAAAGRSVYYYAMAWYRQAPGKEREFVADITARGGSTYYADSVKGRFTISRDNAKNSVYLQMNSLKPEDTAVYYCAAYIYVTYYYWGQGTQVTVSS	high polyreactivity
QVQLEESGGGIVQAGGSLRLSCAASGRTFKLNAMGLYRQAPGKERELVAAISRNGGSTYYADSVKGRFTISRDNAKNTVFLQMNSLKPEDTAVYYCAAVRHGVSLAGYYWGQGTQVTVSS	high polyreactivity
QVQLEESGGGIVQAGGSLRLSCAASGSIFGVYAMGMYRQAPGKERELVAVISRGGTYYADSVKGRFTISRDNAKNTVYLQMHSLKPEDTAVYYCAARTRKSTVFYGLDYWGQGTQVTVSS	high polyreactivity
QVQLEESGGGLDQAGGSLRLTCAASGSIFLWNAMGWSRQSPGKERQLVAAISSGTSTIYADSVKGRFTISRDNAKNTVYLQMNSLKREDTAVYYCAARGRKNQRRYGYWGLGTQVTVSS	low polyreactivity
QVQLEESGGGLFQAGGSLRLRCAASGSIFHINAMGWYRQAPGKERELVADISHRGGSTYYADSVKGRFTISRDNAKNTVYLQMNSLKPEDTAVYYCAVVHVFYAVYYFSFYTYDYWGQGTQVTVSS	low polyreactivity
QVQLEESGGGLGQAGGSLRLTCAASGSIFDTYTMGWYRQATRIEWELVAAITSGTTTTYADSVKGRFTISRDNGLNTVYLKINSLNPEDTAVYYCGARTSGSFDYWGQGPQVTVSS	low polyreactivity
QVQLEESGGGLLKEGGSLRLSCAASGRLFYGYTIGRSRQAPGKERELVAAISRNGGSTYYADSVKGRFTISRDNAKNTVYFHMNSLKTEDSAVYYCNAVFSRGYVIKPYDYWGQGTQVTVSS	high polyreactivity
QVQLEESGGGLVHAGGSLRLSCAASGFIFKANAMGWYRQAPGKEREFVASISSSGGSTYYADSVKGRFTISRDNAKNTVYLHMNSLKPEDTAVYYCAAYTGYRHSRINLGYWGQGTQVTVSS	high polyreactivity
QVQLEESGGGLVHAGGSLRLSCAASGFTCDNYAMGWYRQAPGKERELVAAISNSGGRTYYADSVKGRFTISRDNAKNTVYLQMNSLKPEDTAVYYCTIFKDFDYWGQGTQVTVSS	high polyreactivity
QVQLEESGGGLVKAGGSLRLTCAASGIIFVEYAMGWYRQAPGKERELVARIRYSGGSTYYADSVKGRFTISRDNAKNTVYLQMNSLQPEDTAVYYCNALLPYIYDYWGKGTQVTVSS	low polyreactivity
QVQLEESGGGLVPAGGILRLSCAASGSIFSPNAIGWYRQAAGKEMELDASISSRGGSTYYADSVKGRFNISRDYAKNTVYLKMNSLKPEDTAVYYCAAAVQTRRGTRFDYWGQGTQVTVSS	low polyreactivity
